Columns and labels:
Assay in all cases: cell_activity
[1] = system: TALE nuclease pair BnFAD2_T01 (synthetic construct); conditions: Westar protoplasts
[2] = system: TALE nuclease pair BnFAD2_T02 (synthetic construct); conditions: Westar protoplasts
[3] = system: TALE nuclease pair BnFAD2_T05 (synthetic construct)
[4] = system: TALE nuclease pair BnFAD2_T07 (synthetic construct); conditions: Westar protoplasts
[5] = system: TALE nuclease pair BnFAD2_T03 (synthetic construct); conditions: Westar protoplasts

TCCCCCACCCTCTCCCTTACCTCGCCTGGCCCCTCTACTGGGCCTGCCA (double strand) [BnFAD2_T01 site in BnaC.FAD2.b (SEQ ID NO:15)]
activity (% mutagenesis) ([1]; BnaC.FAD2.b, mismatched site): 1.9

TCCCTCACCCTCTCTCCTACTTCGCCTGGCCTCTCTACTGGGCCTGCCA (double strand) [BnFAD2_T01 site in BnaA/BnaC.FAD2.a (SEQ ID NO:8)]
activity (% mutagenesis) ([1]; BnaA.FAD2.a, 25 C, 2 days, half-sites not demarcated): 8.3
activity (% mutagenesis) ([1]; BnaC.FAD2.a, 25 C, 2 days): 10

TCGTCCCTTACTTCTCCTGGAAGTACAGTCATCGACGCCACCATTCCAA (double strand) [BnFAD2_T02 site in BnaA/BnaC.FAD2.a (SEQ ID NO:9)]
activity (% mutagenesis) ([2]; BnaA.FAD2.a): 9.7
activity (% mutagenesis) ([2]; BnaC.FAD2.a): 10.3

TCGTCCCTTACTTCTCCTGGAAGTACGGCCATCGACGCCACCATTCCAA (double strand) [BnFAD2_T02 site in BnaC.FAD2.b (SEQ ID NO:17)]
activity (% mutagenesis) ([2]; BnaC.FAD2.b): 5.5

TCTGGGTCATAGCCCACGAGTGCGGCCACCACGCCTTCAGCGACTACCA (double strand)
activity (% mutagenesis) ([3]; BnaA.FAD2.a, Westar protoplasts): 3.8
activity (% mutagenesis) ([3]; BnaC.FAD2.a, Westar protoplasts): 4.4
activity (% mutagenesis) ([4]; BnaA.FAD2.a): 2.2
activity (% mutagenesis) ([4]; BnaC.FAD2.a): 2.8

TCTGGGTCATCGCCCACGAATGCGGCCACCACGCCTTCAGCGACCACCA (double strand) [BnFAD2_T05/T07 site in BnaC.FAD2.b (SEQ ID NO:14)]
activity (% mutagenesis) ([3]; BnaC.FAD2.b, printed as 23 but 1549/67387 reads = 2.3): 2.3
activity (% mutagenesis) ([4]; BnaC.FAD2.b): 2.6

TGCGAGACACCACCCTTCACTCTCGGAGACCTCAAGAAAGCAATCCCA (double strand) [BnFAD2_T03 site in BnaC.FAD2.b (SEQ ID NO:19)]
activity (% mutagenesis) ([5]; BnaC.FAD2.b): 10

TGCGAGACACCGCCCTTCACTGTCGGAGAACTCAAGAAAGCAATCCCA (double strand) [BnFAD2_T03 site in BnaA/BnaC.FAD2.a (SEQ ID NO:10)]
activity (% mutagenesis) ([5]; BnaA.FAD2.a): 9
activity (% mutagenesis) ([5]; BnaC.FAD2.a): 9.8
